{"source": "patent US20180064808A1", "about": "(Hoffmann-La Roche, published 2018)", "binders": {"B1": {"name": "FAP binder 28H1 (IgG) (antibody, V domains shown)", "VH": "EVQLLESGGGLVQPGGSLRLSCAASGFTFSSHAMSWVRQAPGKGLEWVSAIWASGEQYYADSVKGRFTISRDNSKNTLYLQMNSLRAEDTAVYYCAKGWLGNFDYWGQGTLVTVSS", "VL": "EIVLTQSPGTLSLSPGERATLSCRASQSVSRSYLAWYQQKPGQAPRLLIIGASTRATGIPDRFSGSGSGTDFTLTISRLEPEDFAVYYCQQGQVIPPTFGQGTKVEIK", "notes": "also called FAP(28H1)"}, "B2": {"name": "DR5(5E11)-28H1 VHCL 2+2 (bispecific antibody, human IgG1, kappa)", "heavy": "not shown", "light": "EIVLTQSPGTLSLSPGERATLSCRASQSVSSSYLAWYQQKPGQAPRLLIYGASSRATGIPDRFSGSGSGTDFTLTISRLEPEDFAVYYCQQGTTHPITFGQGTKVEIKRTVAAPSVFIFPPSDEQLKSGTASVVCLLNNFYPREAKVQWKVDNALQSGNSQESVTEQDSKDSTYSLSSTLTLSKADYEKHKVYACEVTHQGLSSPVTKSFNRGEC", "chain": "EIVLTQSPGTLSLSPGERATLSCRASQSVSRSYLAWYQQKPGQAPRLLIIGASTRATGIPDRFSGSGSGTDFTLTISRLEPEDFAVYYCQQGQVIPPTFGQGTKVEIKSSASTKGPSVFPLAPSSKSTSGGTAALGCLVKDYFPEPVTVSWNSGALTSGVHTFPAVLQSSGLYSLSSVVTVPSSSLGTQTYICNVNHKPSNTKVDKKVEPKSCD", "notes": "28H1 CrossFab domain (VHCL) fused to the C-terminus of the anti-DR5 (5E11) heavy chain by a (G4S)4 connector; also called DR5-FAP bispecific antibody; bispecific, tetravalent DR5-FAP CrossMab molecule"}, "B3": {"name": "DR5(5E11)-28H1 VHCL 2+2 P329GLALA (bispecific antibody, human IgG1, kappa, L234A L235A)", "heavy": "not shown", "light": "EIVLTQSPGTLSLSPGERATLSCRASQSVSSSYLAWYQQKPGQAPRLLIYGASSRATGIPDRFSGSGSGTDFTLTISRLEPEDFAVYYCQQGTTHPITFGQGTKVEIKRTVAAPSVFIFPPSDEQLKSGTASVVCLLNNFYPREAKVQWKVDNALQSGNSQESVTEQDSKDSTYSLSSTLTLSKADYEKHKVYACEVTHQGLSSPVTKSFNRGEC", "chain": "EIVLTQSPGTLSLSPGERATLSCRASQSVSRSYLAWYQQKPGQAPRLLIIGASTRATGIPDRFSGSGSGTDFTLTISRLEPEDFAVYYCQQGQVIPPTFGQGTKVEIKSSASTKGPSVFPLAPSSKSTSGGTAALGCLVKDYFPEPVTVSWNSGALTSGVHTFPAVLQSSGLYSLSSVVTVPSSSLGTQTYICNVNHKPSNTKVDKKVEPKSCD", "notes": "As DR5(5E11)-28H1 VHCL 2+2, with removal of the C-terminal lysine and the P329G/LALA mutation in Fc; also called DR5-FAP bispecific antibody; bispecific, tetravalent DR5-FAP CrossMab molecule"}}, "key": {"[1]": {"molecular_target": "T1, human Fibroblast Activation Protein (FAP) (human, UniProt Q12884 27-760)", "T1 construct": "also called recombinant human FAP; Seprase", "T1 sequence (Q12884 27-760 limits assumed)": "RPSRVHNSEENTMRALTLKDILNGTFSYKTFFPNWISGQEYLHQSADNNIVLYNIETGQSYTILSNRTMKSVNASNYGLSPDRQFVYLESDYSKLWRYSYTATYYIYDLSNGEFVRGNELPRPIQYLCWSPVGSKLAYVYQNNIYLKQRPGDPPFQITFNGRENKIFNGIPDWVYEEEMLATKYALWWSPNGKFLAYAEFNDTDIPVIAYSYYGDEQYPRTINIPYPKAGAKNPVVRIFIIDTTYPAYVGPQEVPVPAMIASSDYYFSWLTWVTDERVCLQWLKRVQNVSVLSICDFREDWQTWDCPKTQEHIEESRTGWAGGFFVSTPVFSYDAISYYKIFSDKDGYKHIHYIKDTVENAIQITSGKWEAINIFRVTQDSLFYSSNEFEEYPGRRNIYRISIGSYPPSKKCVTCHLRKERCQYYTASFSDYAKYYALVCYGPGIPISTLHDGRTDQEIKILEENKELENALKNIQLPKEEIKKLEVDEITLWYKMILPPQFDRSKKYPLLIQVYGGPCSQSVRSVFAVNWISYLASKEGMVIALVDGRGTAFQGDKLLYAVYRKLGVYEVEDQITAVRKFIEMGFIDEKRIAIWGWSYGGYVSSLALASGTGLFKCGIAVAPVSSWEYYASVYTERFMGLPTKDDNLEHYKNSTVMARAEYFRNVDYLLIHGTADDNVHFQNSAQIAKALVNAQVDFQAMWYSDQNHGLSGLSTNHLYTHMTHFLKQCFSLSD", "experiment": "Affinity human [nM], IgG format; method not stated"}, "[2]": {"molecular_target": "T1, human Fibroblast Activation Protein …", "experiment": "SPR (Biacore), simultaneous binding"}, "[3]": {"molecular_target": "T2, murine FAP (murine, UniProt P97321 27-761)", "T2 construct": "also called mouse FAP", "T2 sequence (P97321 27-761 limits assumed)": "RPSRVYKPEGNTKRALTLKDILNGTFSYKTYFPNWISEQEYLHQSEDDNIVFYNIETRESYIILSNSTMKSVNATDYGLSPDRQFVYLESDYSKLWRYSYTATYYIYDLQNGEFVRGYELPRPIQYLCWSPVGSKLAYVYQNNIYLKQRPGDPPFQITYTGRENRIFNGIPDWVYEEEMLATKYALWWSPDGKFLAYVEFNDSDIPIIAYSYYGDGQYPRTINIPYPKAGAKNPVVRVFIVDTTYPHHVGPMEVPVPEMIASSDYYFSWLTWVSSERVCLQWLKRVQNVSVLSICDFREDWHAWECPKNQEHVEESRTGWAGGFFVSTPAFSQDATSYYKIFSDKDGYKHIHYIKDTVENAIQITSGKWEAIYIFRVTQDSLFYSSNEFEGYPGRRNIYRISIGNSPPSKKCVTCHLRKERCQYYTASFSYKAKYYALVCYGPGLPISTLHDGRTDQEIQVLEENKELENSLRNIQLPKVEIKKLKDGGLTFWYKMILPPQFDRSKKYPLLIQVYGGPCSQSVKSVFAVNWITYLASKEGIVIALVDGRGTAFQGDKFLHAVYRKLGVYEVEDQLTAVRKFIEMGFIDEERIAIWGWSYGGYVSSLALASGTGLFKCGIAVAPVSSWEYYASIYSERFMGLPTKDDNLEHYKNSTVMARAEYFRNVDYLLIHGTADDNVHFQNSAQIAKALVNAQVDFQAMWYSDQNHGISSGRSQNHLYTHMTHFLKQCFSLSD", "experiment": "SPR (Biacore), simultaneous binding"}}, "data": [{"binder": "B1", "values": [{"measurement": "Kd", "setting": "[1]", "result": 2.6, "unit": "nM"}]}, {"binder": "B2", "values": [{"measurement": "binding result", "setting": "[2]", "result": "binds"}, {"measurement": "binding result", "setting": "[3]", "result": "binds"}]}, {"binder": "B3", "values": [{"measurement": "binding result", "setting": "[2]", "result": "binds"}, {"measurement": "binding result", "setting": "[3]", "result": "binds"}]}]}
